Experimental data reported in patent US20080044411A1.

Molecular target: GLP-1 R expressed in Rinm cells
Assay: cell-based or functional assay

cAMP activity in Rinm cells, EC50: 0.4 nM
Substance: GLP-1 peptide (from UniProt P01275 98-128)
